From publication PMC9482650, “Quantitative fragmentomics allow affinity mapping of interactomes” (Nature Communications, 2022) come the findings set out here.

Assay in all cases: holdup assay
What all share (parameters): key: below the threshold = too weak to quantify, mostly under pKd 3.1 to 4

For one experiment, the target named is IL16_4, Q14005.
The next experiment addresses T1, PCLO, Q9Y6V0.
T1 sequence (Q9Y6V0 4491-4600, limits assumed, looked up): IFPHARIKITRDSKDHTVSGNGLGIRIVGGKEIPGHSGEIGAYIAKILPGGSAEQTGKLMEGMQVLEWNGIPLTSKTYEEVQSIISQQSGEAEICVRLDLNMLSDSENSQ

The target of the next experiment is T2, FRMPD1, Q5SYB0.
T2 sequence (Q5SYB0 52-145, limits assumed, looked up): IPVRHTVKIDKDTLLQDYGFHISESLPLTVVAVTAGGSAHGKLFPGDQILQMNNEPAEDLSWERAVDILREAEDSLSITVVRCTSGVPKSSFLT

Where [1] appears, read: modified: phospho on T at position -2 from the C-terminal residue.
Setting [2] is: plain residues with an end cap or a label only (N-terminal biotin on a linker: ado-ado).

Sequence of IL16_4, Q14005 (Q14005 1229-1329): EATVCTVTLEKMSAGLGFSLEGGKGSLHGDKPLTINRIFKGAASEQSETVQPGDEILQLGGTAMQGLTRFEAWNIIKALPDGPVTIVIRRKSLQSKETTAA

The pKd is the negative decadic logarithm of the Kd, by convention in mol/L. Take SRSRRRETAL [HPV33-E6_-2P, P06427]: the pKd entry in the experiment with IL16_4, Q14005 (setting [1]) is reported as “below the threshold”; with PCLO, Q9Y6V0 (setting [1]), “below the threshold”; with FRMPD1, Q5SYB0 (setting [1]), “below the threshold”.
Take QLGSPTADLA [SIPA1, Q96FS4]: the negative-log Kd (pKd) entry with IL16_4, Q14005 (setting [2]) is “below the threshold”; with PCLO, Q9Y6V0 (setting [2]), “below the threshold”; with FRMPD1, Q5SYB0 (setting [2]) it was “below the threshold”.
Consider QLKSGRDSTV [TMEM178A, Q8NBL3], for which the pKd with IL16_4, Q14005 (setting [2]) was 3.83; with PCLO, Q9Y6V0 (setting [2]), “below the threshold”; with FRMPD1, Q5SYB0 (setting [2]), “below the threshold”.
With IKLETKKTKL [SLC15A2, Q16348], the pKd with IL16_4, Q14005 (setting [2]) was 3.72; in the experiment with PCLO, Q9Y6V0 (setting [2]), “below the threshold”; in the experiment with FRMPD1, Q5SYB0 (setting [2]) it was “below the threshold”.
KSRPENGTVC [TMEM178B, H3BS89]: the pKd result with IL16_4, Q14005 (setting [2]) is “below the threshold”; in the experiment with PCLO, Q9Y6V0 (setting [2]), “below the threshold”; with FRMPD1, Q5SYB0 (setting [2]) it was “below the threshold”.
Regarding PALKNGQYWV [CSPG4, Q6UVK1], the pKd result in the experiment with IL16_4, Q14005 (setting [2]) is reported as “below the threshold”; with PCLO, Q9Y6V0 (setting [2]), “below the threshold”; in the experiment with FRMPD1, Q5SYB0 (setting [2]) it was “below the threshold”.
Regarding THHRKIHTRV [ZNF599, Q96NL3], the pKd entry with IL16_4, Q14005 (setting [2]) was “below the threshold”; with PCLO, Q9Y6V0 (setting [2]), “below the threshold”; with FRMPD1, Q5SYB0 (setting [2]), “below the threshold”.
Regarding GQNMTVSVVI [PRLHR, P49683], the pKd was 3.62 with IL16_4, Q14005 (setting [2]); “below the threshold” in the experiment with PCLO, Q9Y6V0 (setting [2]); “below the threshold” with FRMPD1, Q5SYB0 (setting [2]).
For YAEKRMLTEV [KCNA6, P17658], the pKd result in the experiment with IL16_4, Q14005 (setting [2]) is on record as “below the threshold”; in the experiment with PCLO, Q9Y6V0 (setting [2]), “below the threshold”; with FRMPD1, Q5SYB0 (setting [2]), “below the threshold”.
Consider QKASRNESTF [POLR1D, P0DPB6], for which the pKd entry is “below the threshold” with IL16_4, Q14005 (setting [2]); “below the threshold” with PCLO, Q9Y6V0 (setting [2]); “below the threshold” with FRMPD1, Q5SYB0 (setting [2]).
With DYSNLRETDI [ADRA1D, P25100], the pKd entry with IL16_4, Q14005 (setting [2]) is on record as “below the threshold”; with PCLO, Q9Y6V0 (setting [2]), “below the threshold”; with FRMPD1, Q5SYB0 (setting [2]), “below the threshold”.
For the molecule KEKASTETEC [TRPM1, Q7Z4N2], the pKd entry was “below the threshold” with IL16_4, Q14005 (setting [2]); “below the threshold” with PCLO, Q9Y6V0 (setting [2]); “below the threshold” in the experiment with FRMPD1, Q5SYB0 (setting [2]).
Turning to AKADAQESRL [PLCB2, Q00722], the pKd with IL16_4, Q14005 (setting [2]) is 3.61; with PCLO, Q9Y6V0 (setting [2]) it was “below the threshold”; with FRMPD1, Q5SYB0 (setting [2]), “below the threshold”.
In the case of PLATCDETSI [SEMA4F, O95754], the pKd result is “below the threshold” with IL16_4, Q14005 (setting [2]); “below the threshold” with PCLO, Q9Y6V0 (setting [2]); “below the threshold” with FRMPD1, Q5SYB0 (setting [2]).
SAGADSETHC [SLCO1B1, Q9Y6L6]: the pKd result is given as “below the threshold” with IL16_4, Q14005 (setting [2]); “below the threshold” with PCLO, Q9Y6V0 (setting [2]); “below the threshold” with FRMPD1, Q5SYB0 (setting [2]).
Turning to AHGSTRDQSI [KCNB1, Q14721], the pKd result with IL16_4, Q14005 (setting [2]) is recorded as “below the threshold”; with PCLO, Q9Y6V0 (setting [2]), “below the threshold”; in the experiment with FRMPD1, Q5SYB0 (setting [2]) it was “below the threshold”.
Consider QQGLLPHSSC [TYRO3, Q06418], for which the pKd result in the experiment with IL16_4, Q14005 (setting [2]) is “below the threshold”; with PCLO, Q9Y6V0 (setting [2]), “below the threshold”; in the experiment with FRMPD1, Q5SYB0 (setting [2]), “below the threshold”.
For TNSKQGETTV [FZD1, Q9UP38], the pKd was 3.68 in the experiment with IL16_4, Q14005 (setting [2]); “below the threshold” with PCLO, Q9Y6V0 (setting [2]); “below the threshold” with FRMPD1, Q5SYB0 (setting [2]).
In the case of RDYTQSSSSL [GRM5, P41594], the pKd result with IL16_4, Q14005 (setting [2]) is recorded as “below the threshold”; in the experiment with PCLO, Q9Y6V0 (setting [2]), “below the threshold”; in the experiment with FRMPD1, Q5SYB0 (setting [2]) it was “below the threshold”.
As to GVHSNDHSVV [LPAR1, Q92633], the pKd with IL16_4, Q14005 (setting [2]) was 3.76; with PCLO, Q9Y6V0 (setting [2]) it was “below the threshold”; with FRMPD1, Q5SYB0 (setting [2]), “below the threshold”.
Regarding KPDKQEEFYA [SDC3, O75056], the pKd entry is on record as “below the threshold” with IL16_4, Q14005 (setting [2]); “below the threshold” with PCLO, Q9Y6V0 (setting [2]); “below the threshold” with FRMPD1, Q5SYB0 (setting [2]).
For the molecule EAVTVESTSL [SLC22A11, Q9NSA0], the pKd entry in the experiment with IL16_4, Q14005 (setting [2]) was “below the threshold”; with PCLO, Q9Y6V0 (setting [2]), “below the threshold”; in the experiment with FRMPD1, Q5SYB0 (setting [2]) it was “below the threshold”.
Take RGKNRRQSIF [CDK18, Q07002]: the pKd result with IL16_4, Q14005 (setting [2]) is “below the threshold”; in the experiment with PCLO, Q9Y6V0 (setting [2]), “below the threshold”; in the experiment with FRMPD1, Q5SYB0 (setting [2]), “below the threshold”.
Consider NKSEPFLTWL [WWTR1, Q9GZV5], for which the pKd entry in the experiment with IL16_4, Q14005 (setting [2]) is recorded as “below the threshold”; with PCLO, Q9Y6V0 (setting [2]), “below the threshold”; with FRMPD1, Q5SYB0 (setting [2]), “below the threshold”.
In the case of TFSRRPKTRV [CD226, Q15762], the pKd result in the experiment with IL16_4, Q14005 (setting [2]) is “below the threshold”; with PCLO, Q9Y6V0 (setting [2]), “below the threshold”; in the experiment with FRMPD1, Q5SYB0 (setting [2]) it was “below the threshold”.
Turning to PEKVSNTTVV [IGSF5, Q9NSI5], the pKd was 3.51 with IL16_4, Q14005 (setting [2]); “below the threshold” with PCLO, Q9Y6V0 (setting [2]); “below the threshold” with FRMPD1, Q5SYB0 (setting [2]).
In the case of FVFESRKEIL [TBPL1, P62380], the pKd entry with IL16_4, Q14005 (setting [2]) was “below the threshold”; with PCLO, Q9Y6V0 (setting [2]), “below the threshold”; in the experiment with FRMPD1, Q5SYB0 (setting [2]), “below the threshold”.
As to TKEIPNCTSV [SORCS3, Q9UPU3], the pKd entry with IL16_4, Q14005 (setting [2]) was “below the threshold”; with PCLO, Q9Y6V0 (setting [2]), “below the threshold”; with FRMPD1, Q5SYB0 (setting [2]), “below the threshold”.
Consider KIEDVEITLV [FCHSD2, O94868], for which the pKd result with IL16_4, Q14005 (setting [2]) is recorded as “below the threshold”; in the experiment with PCLO, Q9Y6V0 (setting [2]), “below the threshold”; with FRMPD1, Q5SYB0 (setting [2]), “below the threshold”.
Regarding NSTHNLKDYV [CLDN20, P56880], the negative-log Kd (pKd) with IL16_4, Q14005 (setting [2]) is 3.65; in the experiment with PCLO, Q9Y6V0 (setting [2]) it was “below the threshold”; with FRMPD1, Q5SYB0 (setting [2]) it was “below the threshold”.
For the molecule WAKEKQHTRL [SLC17A1, Q14916], the pKd result is on record as “below the threshold” with IL16_4, Q14005 (setting [2]); “below the threshold” in the experiment with PCLO, Q9Y6V0 (setting [2]); “below the threshold” with FRMPD1, Q5SYB0 (setting [2]).
GTMFLRETSL [GUCY1A2, P33402]: the negative logarithm of the Kd (pKd) was 3.51 with IL16_4, Q14005 (setting [2]); “below the threshold” with PCLO, Q9Y6V0 (setting [2]); “below the threshold” with FRMPD1, Q5SYB0 (setting [2]).
On to DLLGGGSDSI [TNRC6B, Q9UPQ9], for which the pKd with IL16_4, Q14005 (setting [2]) is 3.61; in the experiment with PCLO, Q9Y6V0 (setting [2]) it was “below the threshold”; with FRMPD1, Q5SYB0 (setting [2]), “below the threshold”.
Take DSEEELPTRL [GRK6, P43250]: the pKd entry is reported as “below the threshold” with IL16_4, Q14005 (setting [2]); “below the threshold” with PCLO, Q9Y6V0 (setting [2]); “below the threshold” with FRMPD1, Q5SYB0 (setting [2]).
Turning to VISSDDLTEL [CAPN6, Q9Y6Q1], the pKd in the experiment with IL16_4, Q14005 (setting [2]) was 3.7; with PCLO, Q9Y6V0 (setting [2]), “below the threshold”; in the experiment with FRMPD1, Q5SYB0 (setting [2]), “below the threshold”.
Regarding IQISELETNV [SLC1A7, O00341], the pKd entry is recorded as “below the threshold” with IL16_4, Q14005 (setting [2]); “below the threshold” with PCLO, Q9Y6V0 (setting [2]); “below the threshold” with FRMPD1, Q5SYB0 (setting [2]).
In the case of FLVTEFNVML [DFNB31, Q9P202], the pKd entry is “below the threshold” with IL16_4, Q14005 (setting [2]); “below the threshold” with PCLO, Q9Y6V0 (setting [2]); “below the threshold” with FRMPD1, Q5SYB0 (setting [2]).
